Key:
[1] = assay type: biochemical; details: PNθP as substrate
[2] = test system: 28 aa CTD heptad repeat peptide with Ser 5 phosphate or Ser 2 phosphate; test: CTD phosphopeptide phosphatase assay (malachite green); assay type: biochemical; details: 25 μM phosphopeptide, 60 mins at 37° C.
Description: The indicated amounts of. SCP1 were incubated with the phosphopeptide substrate and phosphate released was measured as described infra.
N-terminal biotinylated CTD phosphopeptides, comprised of 4 tandem repeats YSPTSPS and containing phosphoserine at position 2 or position 5, were synthesized (Alpha Diagnostics, San Antonio, Tex.). Phosphatase reaction mixtures (50 μl) containing 50 mM Tris-acetate, pH 5.5, 10 mM MgCl2, 0.5 mM DTT, 10% glycerol, 25 μM of phosphopeptide and wild type or mutant SCP1 were incubated for 60 mins at 37° C. The reactions were quenched by adding 0.5 ml of malachite green (Biomol). Phosphate release was measured at A620 and quantified relative to a phosphate standard curve.

[3] = test system: ElALuc, pGL3-Luc and Gal4-TATA-Luc constructs; test: Luciferase reporter assay, basal promoter activity; assay type: cell-based, human; details: cotransfected
Excerpt: (§1) Gal4-DNA binding domain-SCP1 fusion protein expression plasmids-were cotransfected in HEK293 cells with a Gal 4-TKLuc reporter plasmid and luciferase gene expression quantitated. In all panels, results of triplicate transfections are shown +/− SD. Data is expressed as fold-activation experimental/control). […] The indicated amounts of SCP1 or mutant SCP1 expression plasmids were cotransfected in HEK293 cells along with Gal 4-VP16 expression and Gal 4-TK-Luc reporter plasmids and luciferase activity was quantitated. […] The indicated receptor expression plasmids were cotransfected with their cognate promoter-reporter plasmids with or without SCP1 or mutant SCP1 expression plasmids. Cells were treated or untreated with receptor-specific ligands as described infra. […] The indicated concentrations of SCP1 and mutant SCP1 expression plasmids were cotransfected with LMX1 and E47 expression plasmids and the rat insulin 1 promoter-luciferase reporter gene. Luciferase activity was measured as described.
(§2) Tissue Culture and Transfections: Human 293, COS7 and CV1 cells were grown at 37° C. in DMEM supplemented with 10% normal calf serum (BRL). Sub-confluent cells were transfected in 6 well tissue culture dishes using Effectene (Qiagen) according to the manufacturer's instructions. Reporter and activator plasmids (100 ng each) and Flag SCP1 (80 ng) or its mutant were used per well. […]

[4] = test system: Gal 4-TK-Luc reporter stimulated by Gal 4-VP16; test: Luciferase reporter assay, Gal 4-VP16 stimulated gene expression; assay type: cell-based, human; details: HEK293 cells
Excerpt: as §1, §2

[5] = test system: T3 receptor activity on DR+4 TRE-TK-Luc reporter; test: Luciferase reporter assay, ligand-activated T3 receptor; assay type: cell-based, human; details: 100 nM T3, DR+4 TRE-TK-Luc
Excerpt: as §1, §2

[6] = test system: rat insulin 1 promoter-luciferase reporter gene; test: Rat insulin promoter-luciferase assay with LMX1 and E47; assay type: cell-based; details: LMX1 and E47 co-expressed
Excerpt: as §1, §2

[7] = test system: P19 mouse embryonic stem cells; test: Neuronal differentiation of P19 cells; assay type: cell-based; details: clonal P19 line, retinoic acid, selective medium
Description: P19 cells, C, differentiated GFP expressing P19 cells; D, differentiated SCP1-expressing P19 cells; F, differentiated REST/NRSF-expressing P19 cells. Numbers of NLC per field are shown. *p=0.001 compared to WT 19 cells; **p=0.008 compared to WT P19 cell using student's t-test.
P19 stably expressing REST/NRSF.
These cell lines were maintained in α-MEM/10%FBS with […] G418. To induce neuronal differentiation, P19 cells were allowed to aggregate in bacterial grade petri-dishes (Fisher) at a seeding density of 1×10^5cells/ml in the presence of 1×10^−6M all-trans retinoic acid. After 3 days of aggregation, cells were dissociated into single cells by 0.05% trypsin-0.53 mM EDTA (Gibco). Trypsin was removed by centrifugation and the cells were plated in 6 cm tissue culture dishes (Nunc). at a density of 1×10^5 cells/cm^2 in Neurobasal medium/N2 supplement (Invitrogen) in the presence or absence of 1 μg/ml fibronectin (Invitrogen). The cells were cultured for 5 days after which average cell numbers/field were determined. Cells were either lysed to prepare total RNA (Rneasy kit, Qiagen) or stained with TuJ1 antibody (Babco).
For immunostaining, cells were fixed for 10 mins with 4% paraformaldehyde. TuJ1 antibody was used at 1:2000 and secondary antibody used was FITC-conjuagated anti-mouse (1:3000).

B1: SCP1: small CTD phosphatase-1, full-length 261 aa human protein, SEQ ID NO:2 (protein, listed as Homo sapiens)
chain: MDSSAVITQISKEEARGPLRGKGDQKSAASQKPRSRGILHSLFCCVCRDDGEALPAHSGAPLLVEENGAIPKTPVQYLLPEAKAQDSDKICVVIDLDETLVHSSFKPVNNADFIIPVEIDGVVHQVYVLKRPHVDEFLQRMGELFECVLFTASLAKYADPVADLLDKWGAFRARLFRESCVFHRGNYVKDLSRLGRDLRRVLILDNSPASYVFHPDNAVPVASWFDNMSDTELHDLLPFFEQLSRVDDVYSVLRQPRPGS
pH optimum for SCP1 phosphatase activity ([1]; GST-fusion): ~5
divalent metal ion requirement of phosphatase activity ([1]; Ca2+ could not substitute): Mg^2+-dependent
dephosphorylation of Ser 5 versus Ser 2 phosphopeptide [2]: preferentially dephosphorylates the Ser 5 phosphopeptide
reporter gene expression from basal promoter constructs [3]: no significant effect
Gal 4-VP16 stimulated luciferase activity [4]: strongly inhibited
ligand-activated T3 receptor activity [5]: inhibited
inhibition of luciferase expression ([6]; 40 ng SCP1 plasmid alone): > 90%
inhibition of luciferase expression ([6]; 40 ng SCP1 plasmid plus 20 ng mutant SCP1 plasmid): ~20%
effect on neuronal differentiation [7]: did not affect the extent of neuronal differentiation

Source: patent US20070172470A1, “Phosphatase regulation of nucleic acid transcription” (The Regents of the University of California, priority 2003, published 2007)
